In US20210121406A1 (AstraZeneca / MedImmune, published 2021):

B1: Fab1 (Fab, V domains shown)
VH: QMQLVESGGGVVQPGRSLRLSCAASGFTFRTYGMHWVRQAPGKGLEWVAVIWYDGSNKHYADSVKGRFTITRDNSKNTLNLQMNSLRAEDTAVYYCARAPQWELVHEAFDIWGQGTMVTVSS
VL: SYVLTQPPSVSVAPGQTARITCGGNNLGSKSVHWYQQKPGQAPVLVVYDDSDRPSWIPERFSGSNSGNTATLTISRGEAGDEADYYCQVWDSSSDHVVFGGGTKLTVLG
notes: CDRs of anti-TSLP mAb A5 (WO 2009/035577) cloned into an IgG1 Fab scaffold; also called anti-TSLP Fab; MEDI8630
B10: cyno TSLP (ligand, cynomolgus (cyno))
chain: YDFTNCDFQKIEADYLRTISKDLITYMSGTKSTDFNNTVSCSNRPHCLTEIQSLTFNPTPRCASLAKEMFARKTKATLALWCPGYSETQINATQAMKKRRKRKVTTNKCLEQVSQLLGLWRRFIRTLLKKQ
notes: As used in solution in the KinExA assay; also called Cynomolgus TSLP

Key:
cyno TSLP = target: B10; experiment: KinExA, solution phase, global 1:1 fit
[1] = target: T1, N-terminally tagged biotinylated cyno TSLP (cynomolgus (cyno), UniProt A0A7N9CAT7 29-159, biotinylated (site not stated)); experiment: SPR (Biacore 8K), biotinylated TSLP on streptavidin, Fab1 in flow, 1:1 Langmuir model
T1 construct: Captured on streptavidin in the Biacore assay; also called Cynomolgus TSLP; recombinant mammalian cell-expressed cyno TSLP; not shown: N-terminal tag

[2] = target: T2, biotinylated His-Avi hu TSLP (human, UniProt Q969D9 29-159, biotinylated (site not stated)); experiment: HTRF competition; competitor DyLight-labelled tezepelumab
T2 construct: also called biotinylated TSLP; not shown: His-Avi tag

Fab1 [3] = target: B1; experiment: KinExA, cyno TSLP titrated into 40 pM fixed Fab1 (open squares); free Fab1 captured on hu TSLP-coated beads
Fab1 [4] = target: B1; experiment: KinExA, cyno TSLP titrated into 1000 pM fixed Fab1 (filled diamonds); free Fab1 captured on hu TSLP-coated beads

## B1
Cyno TSLP
  Kd: 0.0136 nM
[1]
  Kd: 0.0884 nM

B2: Fab2 (Fab, V domains shown)
VH: QMQLVESGGGVVQPGRSLRLSCAASGFTFRTYGMHWVRQAPGKGLEWVAVIWYDGSNKHYADSVKGRFTITRDNSKNTLNLQMNSLRAEDTAVYYCARAPQWELVHEAFDIWGQGTMVTVSS
VL: SYVLTQPPSVSVAPGQTARITCGGNNIGSKSVHWYQQKPGQAPVLVVYDDSDRPSWIPERFSGSNSGNTATLTISRGEAGDEADYYCQVWDSSSDHVVFGGGTKLTVL
[2]
  IC50: 0.29 nM

B3: Fab5 (Fab, V domains shown)
VH: QMQLVESGGGVVQPGRSLRLSCAASGFTFRTYGMHWVRQAPGKGLEWVAVIWYDGSNKHYADSVKARFTITRDNSKNTLNLQMNSLRAEDTAVYYCARAPQWELVHEAFDIWGQGTMVTVSS
VL: SYVLTQPPSVSVAPGQTARITCGGNNLGSKSVHWYQQKPGQAPVLVVYDDSDRPSWIPERFSGSNSGNTATLTISRGEAGDEADYYCQVWDSSSDHVVFGGGTKLTVL
notes: Only the changed VH is printed
[2]
  IC50: 0.42 nM

B4: Fab9 (Fab, V domains shown)
VH: QMQLVESGGGVVQPGRSLRLSCAASGFTFRTYGMHWVRQAPGKGLEWVAVIWYDGSNKHYADSVKGRFTITRDNSKNTLNLQMNSLRAEDTAVYYCARAPQWELVHEAFDIWGQGTMVTVSS
VL: SYVLTQPPSVSVAPGQTARITCGGNNLGSKSVHWYQQKPGQAPVLVVYDDSDRPSWIPERFSGSNSGNTATLTISRGEAGDEADYYCQVWDSTSDHVVFGGGTKLTVL
notes: Only the changed VL is printed
[2]
  IC50: 0.29 nM

B5: Fab4 (Fab, V domains shown)
VH: QMQLVESGGGVVQPGRSLRLSCAASGFTFRTYGMHWVRQAPGKGLEWVAVIWYDGSNKHYAESVKGRFTITRDNSKNTLNLQMNSLRAEDTAVYYCARAPQWELVHEAFDIWGQGTMVTVSS
VL: SYVLTQPPSVSVAPGQTARITCGGNNLGSKSVHWYQQKPGQAPVLVVYDDSDRPSWIPERFSGSNSGNTATLTISRGEAGDEADYYCQVWDSSSDHVVFGGGTKLTVL
notes: as for B3
[2]
  IC50: 0.36 nM

B6: Fab3 (Fab, V domains shown)
VH: QMQLVESGGGVVQPGRSLRLSCAASGFTFRTYGMHWVRQAPGKGLEWVAVIWYDGSNKHYADSVKGRFTITRDNSKNTLNLQMNSLRAEDTAVYYCARAPQWELVHEAFDIWGQGTMVTVSS
VL: SYVLTQPPSVSVAPGQTARITCGGNNVGSKSVHWYQQKPGQAPVLVVYDDSDRPSWIPERFSGSNSGNTATLTISRGEAGDEADYYCQVWDSSSDHVVFGGGTKLTVL
notes: as for B4
[2]
  IC50: 0.24 nM

B7: Fab6 (Fab, V domains shown)
VH: QMQLVESGGGVVQPGRSLRLSCAASGFTFRTYGMHWVRQAPGKGLEWVAVIWYDGSNKHYADSVKGRFTITRDNSKNTLNLQMNSLRAEDTAVYYCARAPQWELVHEAFDIWGQGTMVTVSS
VL: SYVLTQPPSVSVAPGQTARITCGGQNLGSKSVHWYQQKPGQAPVLVVYDDSDRPSWIPERFSGSNSGNTATLTISRGEAGDEADYYCQVWDSSSDHVVFGGGTKLTVL
notes: as for B4
[2]
  IC50: 0.32 nM

B8: Fab8 (Fab, V domains shown)
VH: QMQLVESGGGVVQPGRSLRLSCAASGFTFRTYGMHWVRQAPGKGLEWVAVIWYDGSNKHYADSVKGRFTITRDNSKNTLNLQMNSLRAEDTAVYYCARAPQWELVHEAFDIWGQGTMVTVSS
VL: SYVLTQPPSVSVAPGQTARITCGGNNLGSKSVHWYQQKPGQAPVLVVYDDSDRPSWIPERFSGSNSGNTATLTISRGEAGDEADYYCQVWDTSSDHVVFGGGTKLTVL
notes: as for B4
[2]
  IC50: 0.29 nM

B9: Fab7 (Fab, V domains shown)
VH: QMQLVESGGGVVQPGRSLRLSCAASGFTFRTYGMHWVRQAPGKGLEWVAVIWYDGSNKHYADSVKGRFTITRDNSKNTLNLQMNSLRAEDTAVYYCARAPQWELVHEAFDIWGQGTMVTVSS
VL: SYVLTQPPSVSVAPGQTARITCGGNQLGSKSVHWYQQKPGQAPVLVVYDDSDRPSWIPERFSGSNSGNTATLTISRGEAGDEADYYCQVWDSSSDHVVFGGGTKLTVL
notes: VL as labelled 'LIGHT CHAIN VL FAB7'
[2]
  IC50: 0.24 nM

## B10
Fab1 [3]
  IC50 (read off the curve): ~0.04 nM
Fab1 [4]
  IC50 (read off the curve): ~0.6 nM
